Results taken from patent publication US20030077290A1.

Target: serum IgE from grass pollen allergic patients (171 sera)
Assay: ELISA competition; sera preabsorbed with rPhl p 6, IgE binding to rPhl p 5

- percent of Phl p 5-specific IgE preabsorbed: < 20%
B1: recombinant Phl p 6 (protein)
chain: GKATTEEQKLIEDINASFRAAMATTANVPPADKYKTFEAAFTVSSKRNLADAVSKAPQLVPKLDEVYNAAYNAADHAAPEDKYEAFVLHFSEALHIIAGTPEVHAVKPGA
